We go through two substances from US20200277355A1.

Experiment [1] deals with TNFR2. Put plainly: MST competition, fluorescently labelled TNFR2, TNF-α titrated in the presence of 100 µM SN10.
In another experiment the target is TNFR1. Nature of the experiment: MST, fluorescently labelled TNFR1, TNF-α titrated, without SN10.
Experiment [2] has as its target TNFR2. Put plainly: MST, fluorescently labelled TNFR2, TNF-α titrated, without SN10.
The next experiment concerns the target TNF-α. Nature of the experiment: MST, fluorescently labelled TNF-α, TNFR1 titrated, without SN10.

For the substance TNF-α (ligand), in the experiment with TNFR2 [1], the KD in the presence of 100µM SN10 was found to be 384 nM. Also, the figures for the Kd with TNFR1 and with TNFR2 [2] were 116 nM and 328 nM, respectively.

For the substance TNFR1 (receptor), the equilibrium dissociation constant (Kd) in the experiment with TNF-α was 2.84 nM.
